Laboratory results reported in PMC7176292.

Assays:
[1] = target: human μ-opioid receptor (μOR), wild type, with HA signal sequence at the N terminus and LgBiT at the C terminus (modified pfastbac1) (human) (UniProt P35372); test: split reporter (BiFC, NanoBiT); NanoBiT on Sf9 membranes co-expressing μOR-LgBiT, Gαi1, Gβ1-SmBiT and Gγ2, in PBS pH 7.4; dose-response of FD-3, 15 min at room temperature, luminescence; normalized to DAMGO
[2] = target: human μ-opioid receptor (μOR), wild type, with HA signal sequence at the N terminus and LgBiT at the C terminus (modified pfastbac1) (human) (UniProt P35372); test: split reporter (BiFC, NanoBiT); NanoBiT on Sf9 membranes co-expressing μOR-LgBiT, Gαi1, Gβ1-SmBiT and Gγ2, in PBS pH 7.4; dose-response of fentanyl, 15 min at room temperature, luminescence; normalized to DAMGO

Sequence of Gi protein complex (Gαi1, Gβ1 with SmBiT at the C terminus, Gγ2) (P63096 whole entry): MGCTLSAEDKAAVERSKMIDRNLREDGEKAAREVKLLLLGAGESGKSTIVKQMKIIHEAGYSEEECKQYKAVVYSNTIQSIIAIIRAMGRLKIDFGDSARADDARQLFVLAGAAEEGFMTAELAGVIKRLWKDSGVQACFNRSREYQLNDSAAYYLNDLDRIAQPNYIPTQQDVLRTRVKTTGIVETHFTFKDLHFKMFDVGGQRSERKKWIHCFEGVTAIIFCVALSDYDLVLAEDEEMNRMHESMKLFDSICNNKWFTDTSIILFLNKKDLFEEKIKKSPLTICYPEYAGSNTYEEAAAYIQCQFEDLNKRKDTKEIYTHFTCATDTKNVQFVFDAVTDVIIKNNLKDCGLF
Sequence of Gi protein complex (Gαi1, Gβ1 with SmBiT at the C terminus, Gγ2) (P62873 whole entry): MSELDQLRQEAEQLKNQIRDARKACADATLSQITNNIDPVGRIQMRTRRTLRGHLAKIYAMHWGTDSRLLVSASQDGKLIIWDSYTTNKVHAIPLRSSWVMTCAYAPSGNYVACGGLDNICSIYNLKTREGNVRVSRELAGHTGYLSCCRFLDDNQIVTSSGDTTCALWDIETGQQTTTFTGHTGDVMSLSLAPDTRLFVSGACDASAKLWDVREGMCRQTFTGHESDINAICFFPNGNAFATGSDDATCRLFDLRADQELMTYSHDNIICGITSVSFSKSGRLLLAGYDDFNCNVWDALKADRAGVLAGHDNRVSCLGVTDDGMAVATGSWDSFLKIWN
Sequence of Gi protein complex (Gαi1, Gβ1 with SmBiT at the C terminus, Gγ2) (P59768 whole entry): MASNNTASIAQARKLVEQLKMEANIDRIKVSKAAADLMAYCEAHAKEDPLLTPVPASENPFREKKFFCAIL

Q: For “Gi protein complex (Gαi1, Gβ1 with SmBiT at the C terminus, Gγ2) (from UniProt P63096 1-354; P62873 1-340; P59768 1-71)”, which maximal coupling efficiency relative to morphine [1] is on record?
A: 67%

Q: And the maximal Gi coupling (normalized to DAMGO) [2]?
A: > 55%
